# Measurements reported in US20140087995A1 (published 2014).
# Numbered stars: 1 amine (or outer) side, 2 acyl side, 3 side chain; on linkers, the order of the positions; unused ones are H or OH. Bridge positions count the residues as written; N and C are the ends. Side chains are listed from the residue outwards. Ends that are not written are not given here. * marks the point of attachment. C20 diacid = O=C(O)CCCCCCCCCCCCCCCCCCC(=O)*; γGlu = O=C(O)[C@H](CCC(=O)[*:2])N[*:1]
# T1: rat calcitonin receptor (rat, UniProt P32214 25-516)
# T1 construct: whole, on cells; also called rCTR; rat calcitonin (a) receptor
# T1 sequence (looked up): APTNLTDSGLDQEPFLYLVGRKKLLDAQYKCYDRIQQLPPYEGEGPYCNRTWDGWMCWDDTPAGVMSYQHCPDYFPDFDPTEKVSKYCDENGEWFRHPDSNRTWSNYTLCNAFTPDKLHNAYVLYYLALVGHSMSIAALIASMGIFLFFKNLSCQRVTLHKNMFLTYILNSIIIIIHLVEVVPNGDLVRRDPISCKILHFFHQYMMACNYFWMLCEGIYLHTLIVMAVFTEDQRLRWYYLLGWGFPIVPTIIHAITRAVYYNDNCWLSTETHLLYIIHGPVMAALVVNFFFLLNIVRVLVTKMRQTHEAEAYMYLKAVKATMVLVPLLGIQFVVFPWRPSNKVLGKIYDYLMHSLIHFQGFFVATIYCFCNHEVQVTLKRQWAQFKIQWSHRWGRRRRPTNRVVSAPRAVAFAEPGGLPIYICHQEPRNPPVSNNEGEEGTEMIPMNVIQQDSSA
# T2: rat amylin receptor (rat calcitonin receptor + rat RAMP 3) (rat, UniProt P32214 25-516; Q9JJ73 23-147)
# T2 construct: whole, on cells; also called rAmylin-R; rat amylin 3(a) receptor
# T2 sequence (looked up) 1: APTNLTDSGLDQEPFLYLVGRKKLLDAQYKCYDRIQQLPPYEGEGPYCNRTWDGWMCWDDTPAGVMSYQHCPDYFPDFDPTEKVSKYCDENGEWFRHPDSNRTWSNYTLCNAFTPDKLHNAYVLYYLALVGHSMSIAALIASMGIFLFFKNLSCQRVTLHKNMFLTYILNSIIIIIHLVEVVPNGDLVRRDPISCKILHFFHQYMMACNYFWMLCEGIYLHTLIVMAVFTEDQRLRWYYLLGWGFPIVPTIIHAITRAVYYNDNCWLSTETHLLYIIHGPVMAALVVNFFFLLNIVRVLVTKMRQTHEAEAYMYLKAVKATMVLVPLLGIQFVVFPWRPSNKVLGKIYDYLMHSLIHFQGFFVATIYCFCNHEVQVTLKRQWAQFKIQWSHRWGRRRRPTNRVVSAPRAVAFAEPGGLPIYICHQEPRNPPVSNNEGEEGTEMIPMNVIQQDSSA
# T2 sequence (looked up) 2: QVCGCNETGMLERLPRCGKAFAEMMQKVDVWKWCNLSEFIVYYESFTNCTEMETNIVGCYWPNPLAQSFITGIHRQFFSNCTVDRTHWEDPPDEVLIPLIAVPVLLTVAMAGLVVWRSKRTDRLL
# T3: human calcitonin receptor (human, UniProt P30988 25-474)
# T3 construct: whole, on cells; also called hCTR; hCT
# T3 sequence (looked up): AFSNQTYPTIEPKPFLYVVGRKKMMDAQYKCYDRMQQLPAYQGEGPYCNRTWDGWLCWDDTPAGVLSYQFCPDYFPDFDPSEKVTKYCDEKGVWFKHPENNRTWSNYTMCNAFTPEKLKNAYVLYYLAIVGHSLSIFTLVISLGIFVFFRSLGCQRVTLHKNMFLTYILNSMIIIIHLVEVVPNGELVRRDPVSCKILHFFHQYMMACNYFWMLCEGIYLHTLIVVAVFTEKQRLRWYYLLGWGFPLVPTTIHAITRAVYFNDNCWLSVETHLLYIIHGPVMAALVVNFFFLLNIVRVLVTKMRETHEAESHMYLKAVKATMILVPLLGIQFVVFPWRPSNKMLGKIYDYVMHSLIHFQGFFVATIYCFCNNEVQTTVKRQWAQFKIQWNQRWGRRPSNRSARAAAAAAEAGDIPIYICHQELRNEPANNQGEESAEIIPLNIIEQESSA
# Legend:
# rat calcitonin receptor [1] = biological target: T1, rat calcitonin receptor; assay: ratio of binding IC50s: rat calcitonin receptor over rat amylin receptor (reference)
# [2] = biological target: T2, rat amylin receptor (rat calcitonin …); assay: SPA competition with 125I-rat amylin, membranes of BHK cells with rat calcitonin receptor + rat RAMP3 (Assay VI)
# rat calcitonin receptor [3] = biological target: T1, rat calcitonin receptor; assay: SPA competition with 125I-calcitonin, membranes of BHK cells with rat calcitonin receptor (Assay VIII)
# [4] = biological target: T3, human calcitonin receptor; assay: ratio of binding IC50s: human calcitonin receptor over human amylin receptor (reference)
# Procedure, shortened: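 Membranes (35 ng/μL final) + SPA beads, 50 mM Hepes pH 7.4 buffer with 1 mM CaCl2, 5 mM MgCl₂, 0.1% OA, 0.02% Tween20; 120 min, 25° C, shaking; centrifuged, counted; IC₅₀ by one-site binding competition.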
Binder,Ratio rCT/rAmylin binding (rat calcitonin receptor [1]),IC50 [2] [nM],IC50 (rat calcitonin receptor [3]) [nM],Ratio hCT/hAmylin binding [4]
"K([γGlu-C20 diacid])CNTATCATQRLANFLRHSSPNFGAIPSSTNVGHNTY-NH2 (disulfide 2-7; N-terminus assumed; SMILES CC[C@H](C)[C@H](NC(=O)[C@H](C)NC(=O)CNC(=O)[C@H](Cc1ccccc1)NC(=O)[C@H](CC(N)=O)NC(=O)[C@@H]1CCCN1C(=O)[C@H](CO)NC(=O)[C@H](CO)NC(=O)[C@H](Cc1c[nH]cn1)NC(=O)[C@H](CCCNC(=N)N)NC(=O)[C@H](CC(C)C)NC(=O)[C@H](Cc1ccccc1)NC(=O)[C@H](CC(N)=O)NC(=O)[C@H](C)NC(=O)[C@H](CC(C)C)NC(=O)[C@H](CCCNC(=N)N)NC(=O)[C@H](CCC(N)=O)NC(=O)[C@@H](NC(=O)[C@H](C)NC(=O)[C@@H]1CSSC[C@H](NC(=O)[C@@H](N)CCCCNC(=O)CC[C@H](NC(=O)CCCCCCCCCCCCCCCCCCC(=O)O)C(=O)O)C(=O)N[C@@H](CC(N)=O)C(=O)N[C@@H]([C@@H](C)O)C(=O)N[C@@H](C)C(=O)N[C@@H]([C@@H](C)O)C(=O)N1)[C@@H](C)O)C(=O)N1CCC[C@H]1C(=O)N[C@@H](CO)C(=O)N[C@@H](CO)C(=O)N[C@H](C(=O)N[C@@H](CC(N)=O)C(=O)N[C@H](C(=O)NCC(=O)N[C@@H](Cc1c[nH]cn1)C(=O)N[C@@H](CC(N)=O)C(=O)N[C@H](C(=O)N[C@@H](Cc1ccc(O)cc1)C(N)=O)[C@@H](C)O)C(C)C)[C@@H](C)O, synthetic analogue of human amylin; also called compound 77) [N^ε1-[(4S)-4-carboxy-4-(19-carboxynonadecanoylamino)butanoyl]-[Arg17,Pro21,Pro27,His34]-h-amylin]",137,1.5,205,118
"K([γGlu-C20 diacid])CNTATCATQRLAHFLRHSSPNFGAIPSSTNVGRNTY-NH2 (disulfide 2-7; N-terminus assumed; SMILES CC[C@H](C)[C@H](NC(=O)[C@H](C)NC(=O)CNC(=O)[C@H](Cc1ccccc1)NC(=O)[C@H](CC(N)=O)NC(=O)[C@@H]1CCCN1C(=O)[C@H](CO)NC(=O)[C@H](CO)NC(=O)[C@H](Cc1c[nH]cn1)NC(=O)[C@H](CCCNC(=N)N)NC(=O)[C@H](CC(C)C)NC(=O)[C@H](Cc1ccccc1)NC(=O)[C@H](Cc1c[nH]cn1)NC(=O)[C@H](C)NC(=O)[C@H](CC(C)C)NC(=O)[C@H](CCCNC(=N)N)NC(=O)[C@H](CCC(N)=O)NC(=O)[C@@H](NC(=O)[C@H](C)NC(=O)[C@@H]1CSSC[C@H](NC(=O)[C@@H](N)CCCCNC(=O)CC[C@H](NC(=O)CCCCCCCCCCCCCCCCCCC(=O)O)C(=O)O)C(=O)N[C@@H](CC(N)=O)C(=O)N[C@@H]([C@@H](C)O)C(=O)N[C@@H](C)C(=O)N[C@@H]([C@@H](C)O)C(=O)N1)[C@@H](C)O)C(=O)N1CCC[C@H]1C(=O)N[C@@H](CO)C(=O)N[C@@H](CO)C(=O)N[C@H](C(=O)N[C@@H](CC(N)=O)C(=O)N[C@H](C(=O)NCC(=O)N[C@@H](CCCNC(=N)N)C(=O)N[C@@H](CC(N)=O)C(=O)N[C@H](C(=O)N[C@@H](Cc1ccc(O)cc1)C(N)=O)[C@@H](C)O)C(C)C)[C@@H](C)O, synthetic analogue of human amylin; also called compound 85)",46.5,3.14,146,91.8

# Binders with a lower IC50 [2], results first:
Ratio rCT/rAmylin binding (rat calcitonin receptor [1]),IC50 [2] [nM],IC50 (rat calcitonin receptor [3]) [nM],Ratio hCT/hAmylin binding [4],Binder
119,0.523,62,37.5,"K([γGlu-C20 diacid])CNTATCATQRLAEFLRHSSPNFGAIPSSTNVGSRTY-NH2 (disulfide 2-7; N-terminus assumed; SMILES CC[C@H](C)[C@H](NC(=O)[C@H](C)NC(=O)CNC(=O)[C@H](Cc1ccccc1)NC(=O)[C@H](CC(N)=O)NC(=O)[C@@H]1CCCN1C(=O)[C@H](CO)NC(=O)[C@H](CO)NC(=O)[C@H](Cc1c[nH]cn1)NC(=O)[C@H](CCCNC(=N)N)NC(=O)[C@H](CC(C)C)NC(=O)[C@H](Cc1ccccc1)NC(=O)[C@H](CCC(=O)O)NC(=O)[C@H](C)NC(=O)[C@H](CC(C)C)NC(=O)[C@H](CCCNC(=N)N)NC(=O)[C@H](CCC(N)=O)NC(=O)[C@@H](NC(=O)[C@H](C)NC(=O)[C@@H]1CSSC[C@H](NC(=O)[C@@H](N)CCCCNC(=O)CC[C@H](NC(=O)CCCCCCCCCCCCCCCCCCC(=O)O)C(=O)O)C(=O)N[C@@H](CC(N)=O)C(=O)N[C@@H]([C@@H](C)O)C(=O)N[C@@H](C)C(=O)N[C@@H]([C@@H](C)O)C(=O)N1)[C@@H](C)O)C(=O)N1CCC[C@H]1C(=O)N[C@@H](CO)C(=O)N[C@@H](CO)C(=O)N[C@H](C(=O)N[C@@H](CC(N)=O)C(=O)N[C@H](C(=O)NCC(=O)N[C@@H](CO)C(=O)N[C@@H](CCCNC(=N)N)C(=O)N[C@H](C(=O)N[C@@H](Cc1ccc(O)cc1)C(N)=O)[C@@H](C)O)C(C)C)[C@@H](C)O, synthetic analogue of human amylin; also called compound 51)"
122,0.215,26.3,45.2,"K([γGlu-C20 diacid])CNTATCATQRLANFLRHSSPNFGAIPSSTNVGSHTY-NH2 (disulfide 2-7; N-terminus assumed; SMILES CC[C@H](C)[C@H](NC(=O)[C@H](C)NC(=O)CNC(=O)[C@H](Cc1ccccc1)NC(=O)[C@H](CC(N)=O)NC(=O)[C@@H]1CCCN1C(=O)[C@H](CO)NC(=O)[C@H](CO)NC(=O)[C@H](Cc1c[nH]cn1)NC(=O)[C@H](CCCNC(=N)N)NC(=O)[C@H](CC(C)C)NC(=O)[C@H](Cc1ccccc1)NC(=O)[C@H](CC(N)=O)NC(=O)[C@H](C)NC(=O)[C@H](CC(C)C)NC(=O)[C@H](CCCNC(=N)N)NC(=O)[C@H](CCC(N)=O)NC(=O)[C@@H](NC(=O)[C@H](C)NC(=O)[C@@H]1CSSC[C@H](NC(=O)[C@@H](N)CCCCNC(=O)CC[C@H](NC(=O)CCCCCCCCCCCCCCCCCCC(=O)O)C(=O)O)C(=O)N[C@@H](CC(N)=O)C(=O)N[C@@H]([C@@H](C)O)C(=O)N[C@@H](C)C(=O)N[C@@H]([C@@H](C)O)C(=O)N1)[C@@H](C)O)C(=O)N1CCC[C@H]1C(=O)N[C@@H](CO)C(=O)N[C@@H](CO)C(=O)N[C@H](C(=O)N[C@@H](CC(N)=O)C(=O)N[C@H](C(=O)NCC(=O)N[C@@H](CO)C(=O)N[C@@H](Cc1c[nH]cn1)C(=O)N[C@H](C(=O)N[C@@H](Cc1ccc(O)cc1)C(N)=O)[C@@H](C)O)C(C)C)[C@@H](C)O, synthetic analogue of human amylin; also called compound 60) [N^ε1-[(4S)-4-carboxy-4-(19-carboxynonadecanoylamino)butanoyl]-[Arg17,Pro21,Pro27,His35]-h-amylin]"
